Reference: patent US20240262791A1, “B[…] […] AMINO ACIDS” (priority 2021, published 2024)

What was measured:
[1] = molecular target: Spike protein on authentic SARS-CoV-2 Nanoluciferase virus (USA/WA1-2020) (SARS-CoV-2) (UniProt P0DTC2); assay: cell-based or functional assay
[2] = molecular target: Spike protein on SARS-CoV-2 GFP Reporter Virus Particles (pseudotyped lentivirus), wild-type strain (SARS-CoV-2) (UniProt P0DTC2); assay: cell-based or functional assay
[3] = molecular target: SARS-CoV-2 (2019-nCoV) Spike RBD-mFc Recombinant Protein (SARS-CoV-2; mouse) (UniProt P0DTC2); assay: time course 0 to 16 h at 37 °C, Western blot

| Substance | IC50, neutralizing authentic SARS-CoV-2 virus [1] [nM] | IC50, neutralizing pseudovirus [2] [nM] | apparent second-order rate constant of covalent crosslinking [3] [M⁻¹ s⁻¹] |
| --- | --- | --- | --- |
| mNb6 dimer with one FFY at position 108 of the N-terminal mNb6 (VHH) | 0.28 | 1.9 |  |
| ACE2-34FSY (soluble human ACE2, amino acids 1 to 740, FSY at H34, C-terminal His x6) (from UniProt Q9BYF1 18-740) (receptor) |  |  | 123 |
